Measured values from paper PMC8533110.

Legend:
Assay in all cases: EMSA
Conditions in all cases: EMSA: 10 mM Tris-HCl pH 8.0, 60 mM NaCl, 10 mM KCl, 5 mM MgCl2, 1 mM DTT, 0.05% NP40, 10% glycerol, footprint: 5 mM Tris-HCl pH 8.0, 60 mM NaCl, 5 mM KCl
[1] = biological target: T1, HspR (Campylobacter jejuni NCTC 11168) (UniProt Q0P926)
T1 sequence: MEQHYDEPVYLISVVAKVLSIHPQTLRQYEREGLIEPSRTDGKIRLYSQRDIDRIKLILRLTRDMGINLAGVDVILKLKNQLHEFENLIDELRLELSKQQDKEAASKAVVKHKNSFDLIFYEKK

[2] = biological target: T2, HrcA (Campylobacter jejuni NCTC 11168) (UniProt Q9PPG2)
T2 sequence: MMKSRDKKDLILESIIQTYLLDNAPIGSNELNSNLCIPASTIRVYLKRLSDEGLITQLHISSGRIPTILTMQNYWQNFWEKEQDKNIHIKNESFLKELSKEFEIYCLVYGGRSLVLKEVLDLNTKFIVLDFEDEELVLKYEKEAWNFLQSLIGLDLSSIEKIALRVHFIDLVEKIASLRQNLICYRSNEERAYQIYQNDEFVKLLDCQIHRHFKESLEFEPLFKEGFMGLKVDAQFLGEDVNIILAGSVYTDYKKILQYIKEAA

[3] = biological target: T3, HrcA;HspR (Campylobacter jejuni NCTC 11168;Campylobacter jejuni NCTC 11168) (UniProt Q9PPG2+Q0P926)
T3 sequence 1: T2 sequence
T3 sequence 2: T1 sequence

| Sequence | binding [1] | binding [2] | binding [3] |
| --- | --- | --- | --- |
| GGATCCCTTGCAGCAAATAAAGCACTTGCTAAACTTAATGATAAAAAAATCTTTTTCATTTCATTTCCTTTTGTTCTTAAAGATAAATTATCTCGTAAAATATTTTACTGTCTTCATAGTATAAAACCGAAAATTTACAAAATTGTAAATAAAACCTTGAGTGATAAAAATTTATAAAACTTGATTGACTTAGGCTAAAGTTTATGTTATAATTTAATCCTCTATATAATCAAGTAAAAATTTTTAAGGAAATATAACATGAATAGTTTATACGAAACTCTTGGAGTTAGCCTCGAG (double strand) [Pcbp promoter probe (EMSA)] | binds |  |  |
| GGATCCGCACAACAACAAAAGCTACAATGCCATAAAAAATCTTTTTCATTTTTATCCTTTAGTTTATTTTATAAAATAACTTTAGTCTATAAAACTAAACTTTTATAAATATTTTAATTTAAAGTATTGACAAAATTCATTTTTTATAGTATGATATTATCACTCTAAATTAAAGAGTGCTAAAATCAATATTTTTAAGGATGGACAAAAATGAATTTTCAACCTTTAGGAAAGCGTGTTCTAGTTAAACGCGCTCGAG (double strand) [Pgro promoter probe (EMSA)] | binds | binds | binds |
